Like-named read-outs stand apart in the source and are kept apart here.
Experiments:
R recombinase [1] = settings: in vitro resolution between RS sites, recombinants
R recombinase [2] = experiment: cell_activity; settings: in vivo resolution after 4 h in LB+IPTG (3% after 1 h)

With RS site the activity (R recombinase [1]) was 30% and the activity (R recombinase [2]) was 15%.

Source: patent US20040203016
